# ± gives the uncertainty stated by the source.
# B1: Transcription intermediary factor 1-beta, residues 620 to 671; numbered along this chain, Q13263 (parent)
# chain: TLDDSATICRVCQKPGDLVMCNQCEFCFHLDCHLPALQDVPGEEWSCSLCHV
# B2: Tudor domain-containing protein 3, residues 554 to 611; numbered along this chain, Q9H7E2 (parent)
# chain: KMWKPGDECFALYWEDNKFYRAEVEALHSSGMTAVVKFIDYGNYEEVLLSNIKPIQTE
# Variants of: B1
# Assay: abundance fitness (aPCA) (normalised: wild type 0, dead -1); higher = more abundant; growth selection in yeast, the domain comes from the species named
# Details: Homo sapiens
row,Variant,abundance fitness
1,I8M,0.056 ± 0.11
2,I8K,-0.107 ± 0.14
3,I8Y,0.077 ± 0.12
4,I8H,-0.123 ± 0.14
5,I8C,0.083 ± 0.12
6,I8L,0.03 ± 0.092
7,I8D,-0.51 ± 0.13
8,I8W,-0.348 ± 0.11
9,I8P,-0.302 ± 0.13
10,V11L,0.009 ± 0.078
11,V11K,-0.162 ± 0.11
12,V11P,-0.779 ± 0.14
13,V11H,-0.659 ± 0.22
14,V11R,-0.128 ± 0.088
15,V11E,-0.072 ± 0.12
16,V11G,-0.221 ± 0.1
17,V11M,0.059 ± 0.093
18,V11S,-0.312 ± 0.084
19,V11Q,-0.136 ± 0.12
20,V11A,-0.131 ± 0.081
21,V11N,-0.142 ± 0.15
22,V11W,-0.409 ± 0.1
23,V11I,-0.064 ± 0.11
24,V11Y,-0.515 ± 0.17
25,V11D,-0.484 ± 0.21
26,V11C,-0.39 ± 0.12

row,Variant,abundance fitness
1,D17H,0.01 ± 0.15
2,D17V,-0.355 ± 0.11
3,D17R,-0.062 ± 0.098
4,D17Y,-0.512 ± 0.17
5,D17A,-0.639 ± 0.19
6,D17L,-0.301 ± 0.12
7,D17M,-0.364 ± 0.21
8,D17Q,-0.186 ± 0.2
9,D17N,-0.256 ± 0.2
10,D17S,-0.004 ± 0.098
11,D17W,-0.522 ± 0.15
12,D17C,-0.151 ± 0.16
13,D17K,-0.018 ± 0.16
14,D17P,-0.604 ± 0.15
15,D17F,-0.099 ± 0.21
16,D17T,-0.074 ± 0.12
17,D17G,0.076 ± 0.1
18,D17I,-0.409 ± 0.24
19,D17E,-0.119 ± 0.16
20,Q13A,-0.322 ± 0.082
21,Q13M,-0.002 ± 0.1
22,Q13S,0.036 ± 0.088
23,Q13I,-0.265 ± 0.16
24,Q13R,-0.025 ± 0.079
25,Q13G,-0.016 ± 0.075
26,Q13C,0.091 ± 0.13

row,Variant,abundance fitness
1,Q13P,-0.82 ± 0.16
2,Q13T,-0.085 ± 0.11
3,Q13V,-0.518 ± 0.079
4,Q13K,-0.032 ± 0.13
5,Q13W,-0.063 ± 0.1
6,Q13E,0.092 ± 0.093
7,Q13Y,-0.111 ± 0.12
8,Q13D,0.144 ± 0.12
9,Q13L,-0.084 ± 0.079
10,Q13F,0.042 ± 0.12
11,Q13N,0.128 ± 0.17
12,Q13H,0.062 ± 0.15
13,P15M,-0.168 ± 0.24
14,P15H,-0.132 ± 0.22
15,P15W,-0.771 ± 0.18
16,P15D,-0.233 ± 0.2
17,P15S,-0.022 ± 0.1
18,P15A,0.005 ± 0.11
19,P15Q,-0.559 ± 0.21
20,P15K,-0.193 ± 0.2
21,P15G,-0.126 ± 0.09
22,P15F,-0.787 ± 0.27
23,P15L,-0.684 ± 0.15
24,P15Y,-0.255 ± 0.2
25,P15E,-0.01 ± 0.14
26,P15C,-0.646 ± 0.15

row,Variant,abundance fitness
1,P15I,-0.359 ± 0.32
2,P15N,-0.396 ± 0.25
3,P15T,-0.546 ± 0.17
4,K14L,-0.513 ± 0.46
5,K14F,-0.424 ± 0.3
6,K14S,-0.35 ± 0.26
7,K14N,-0.408 ± 0.25
8,S5P,-0.18 ± 0.14
9,S5N,-0.444 ± 0.36
10,S5V,-0.381 ± 0.093
11,S5R,-0.064 ± 0.077
12,S5F,-0.227 ± 0.22
13,S5T,-0.193 ± 0.13
14,S5W,-0.307 ± 0.11
15,S5G,-0.308 ± 0.076
16,S5M,-0.267 ± 0.11
17,S5I,-0.04 ± 0.17
18,S5L,-0.596 ± 0.12
19,S5Q,-0.215 ± 0.11
20,S5E,-0.314 ± 0.1
21,S5C,-0.157 ± 0.23
22,S5K,-0.03 ± 0.12
23,S5D,-0.267 ± 0.43

# Variants of: B2
# Assay: as above
# Details: Homo sapiens
row,Variant,abundance fitness
1,N17R,-0.084 ± 0.068
2,Y20M,-0.297 ± 0.097
3,Y20G,-0.732 ± 0.072
4,E25K,0.051 ± 0.1
5,E25A,0.062 ± 0.079
6,Q56I,-0.038 ± 0.092
7,Q56H,0.041 ± 0.086
8,F19S,-0.703 ± 0.086
9,S30W,-0.462 ± 0.097
10,A34K,-0.646 ± 0.18
11,V24M,-0.726 ± 0.1
12,A26S,0.106 ± 0.095
13,S29K,-0.028 ± 0.082
14,S29Y,-0.061 ± 0.092
15,S29G,-0.107 ± 0.057
16,S29D,0.014 ± 0.097
17,D7V,-0.789 ± 0.079
18,P54K,-0.138 ± 0.11
19,E15C,-0.21 ± 0.098
20,E15P,-0.185 ± 0.093
21,M32I,-0.24 ± 0.088
22,M32T,0.046 ± 0.075

row,Variant,abundance fitness
1,M32N,0.003 ± 0.091
2,F38W,-0.416 ± 0.074
3,N51H,0.055 ± 0.084
4,E45L,-0.53 ± 0.08
5,E23F,-0.1 ± 0.11
6,E23M,-0.005 ± 0.1
7,E23S,0.013 ± 0.059
8,E23W,-0.176 ± 0.08
9,E23G,-0.596 ± 0.075
10,E8V,-0.122 ± 0.066
11,S50G,-0.155 ± 0.054
12,S50Y,-0.437 ± 0.097
13,P5L,-0.261 ± 0.081
14,P5H,-0.133 ± 0.097
15,P5F,-0.529 ± 0.15
16,W14I,-0.131 ± 0.11
17,W14Y,-0.006 ± 0.12
18,W14C,0.046 ± 0.078
19,K53V,-0.194 ± 0.057
20,K53E,-0.261 ± 0.079
21,V35P,-0.973 ± 0.14
22,K1D,-0.182 ± 0.21

row,Variant,abundance fitness
1,T33A,-0.121 ± 0.075
2,T33P,-1.03 ± 0.14
3,T33C,-0.14 ± 0.067
4,G6Q,-0.832 ± 0.19
5,G6K,-0.416 ± 0.1
6,L49K,-0.774 ± 0.13
7,H28D,-0.144 ± 0.11
8,E46Y,-0.324 ± 0.11
9,E46Q,-0.055 ± 0.11
10,M2V,-0.164 ± 0.07
11,K37H,-0.32 ± 0.14
12,K37N,-0.567 ± 0.17
13,K37Q,-0.359 ± 0.093
14,K37S,-0.616 ± 0.088
15,K4H,-0.335 ± 0.099
16,K4Q,-0.158 ± 0.089
17,G31F,-0.558 ± 0.12
18,D16A,-0.529 ± 0.08
19,Y41R,0.108 ± 0.059
20,E58Y,-0.157 ± 0.25
21,Y13A,-0.02 ± 0.069
22,C9E,-0.887 ± 0.14

# Source: the Human Domainome abundance scans (Beltran et al. 2025)
